Source: patent publication CN113045675A (BEIJING ROCK EDGE BIOTECHNOLOGY CO LTD, dated 2021)

Tests used:
[1] = target: T1, CD22蛋白胞外段 (CD22 extracellular domain, C-terminal His tag) (human, UniProt P20273 20-687); test: SPR, Biacore T200; CD22 amine-coupled to a CM5 chip; nanobody at 2, 4, 8, 16 and 32 nM; curve fit
T1 construct: extracellular domain; also called CD22胞外段蛋白; CD22蛋白分子; not shown: C-terminal His tag
T1 sequence (looked up): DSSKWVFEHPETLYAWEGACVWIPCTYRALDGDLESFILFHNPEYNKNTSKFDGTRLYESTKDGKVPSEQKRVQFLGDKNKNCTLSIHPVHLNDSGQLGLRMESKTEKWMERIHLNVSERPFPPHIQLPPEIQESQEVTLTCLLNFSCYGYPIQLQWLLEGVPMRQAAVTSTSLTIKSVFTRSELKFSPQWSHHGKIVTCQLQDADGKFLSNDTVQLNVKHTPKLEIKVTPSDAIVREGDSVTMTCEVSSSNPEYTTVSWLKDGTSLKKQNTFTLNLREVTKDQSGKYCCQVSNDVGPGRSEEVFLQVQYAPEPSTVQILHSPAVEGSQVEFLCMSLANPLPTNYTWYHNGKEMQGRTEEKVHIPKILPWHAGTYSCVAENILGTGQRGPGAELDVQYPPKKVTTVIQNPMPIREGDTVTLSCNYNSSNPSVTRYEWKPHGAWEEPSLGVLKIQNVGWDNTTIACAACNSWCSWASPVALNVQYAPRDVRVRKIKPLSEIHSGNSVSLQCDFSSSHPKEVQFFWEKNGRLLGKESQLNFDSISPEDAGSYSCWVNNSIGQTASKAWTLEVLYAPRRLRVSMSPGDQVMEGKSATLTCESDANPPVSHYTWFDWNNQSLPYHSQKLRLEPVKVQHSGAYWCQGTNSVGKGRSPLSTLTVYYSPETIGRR

[2] = target: T1, CD22蛋白胞外段 (CD22 extracellular domain, …); test: SPR, Biacore T200; CD22 amine-coupled to a CM5 chip; screening of clones by affinity

- Kd [1]: 9.47 nM
- Kd [2]: ~10 nM
B1: BA125纳米抗体 (BA125 nanobody, VHH against CD22, C-terminal His tag) (VHH)
VHH: QVQLVESGGGLVQPGGSLRLSCAASGSIFGSNTMGWFRQAPGQQRELVAAMSTLGRTSYAVSVKGRFTISRDNAKNTVYLQMNSLKPEDTAVYYCKYTGTTPRDIYWGLGTQVTVSS
notes: also called 纳米抗体BA125克隆; BA125纳米抗体VHH区; not shown: C-terminal His tag
